{"source": "patent US12472269B2", "about": "“Liver-specific inducible promoters and methods of use thereof” (ASKBIO INC., priority 2019, dated 2025)", "molecules": {"B1": {"name": "PB1-MinTK: promoter: single mouse PBREM element and MinTK minimal promoter, SEQ ID NO: 7 (nucleic acid)", "DNA": "TCTGTACTTTCCTGACCTTGGCACAGTGCCACCATCAACTTGCCTGACACCGATCCGGCCCCGCCCAGCGTCTTGTCATTGGCGAATTCGAACACGCAGATGCAGTCGGGGCGGCGCGGTCCGAGGTCCACTTCGCATATTAAGGTGACGCGTGTGGCCTCGAACACCGAGCGACCCTGCAGCGACCCGCTTAACAGCGTCAACAGCGTGCCGCAGATCTCGAGGAGCTTGGCGAGATTTTCAGGAGCTAAGGAAGCTAAAC", "modifications": "PB1-MinTK"}}, "test_system": "AXOL ARE-hepatocytes", "experiment": "Luciferase expression from PBREM promoters in AXOL ARE-hepatocytes, induction by CITCO", "format": "cell-based, human", "details": "1 μM CITCO"}
{"molecule": "B1", "values": [{"measurement": "expression level compared to CMV-IE", "value": 20, "unit": "%"}, {"measurement": "induction of luciferase expression", "setting": "readout 24 hrs after induction", "value": "around 7 fold"}]}
